Measured values reported in patent US20140303084A1 (Biogen, published 2014).
Bridge positions count the residues as written; N and C are the ends. Square brackets hold non-standard residues; d marks the D form. Primed or numbered codes have the meaning given here. Side chains are listed from the residue outwards. Ends that are not written are not given here. * marks the point of attachment. :N‑O‑CH2‑CO‑PEG27 = oxime linkage (=N-O-CH2-CO-) to a PEG27 spacer; Biotin = O=C1N[C@H]2[C@H](CS[C@H]2CCCCC(=O)*)N1; PEG2(3) = PEG2 spacer carrying biotin on Lys; Palmitoyl = CCCCCCCCCCCCCCCC(=O)*; NMeL = CN[C@@H](CC(C)C)C(=O)O; PEG16″ = not defined here; PEG2″ = not defined here; PEG16′ = PEG-16 spacer

B1: K-k-MeLeu-TCLASYCWLF (peptide)
peptide: K[dK][NMeL]TCLASYCWLF
modifications: not fully specified; printed as K-k-MeLeu-TCLASYCWLF; cysteine pairing not given here
B2: KK-k-MeLeu-TCLASYCWLF (peptide)
peptide: KK[dK][NMeL]TCLASYCWLF
modifications: not fully specified; printed as KK-k-MeLeu-TCLASYCWLF; cysteine pairing not given here
B3: KKK-k-MeLeu-TCLASYCWLF (peptide)
peptide: KKK[dK][NMeL]TCLASYCWLF
modifications: not fully specified; printed as KKK-k-MeLeu-TCLASYCWLF; cysteine pairing not given here
B4: k-MeLeu-TCLASYCQLF (peptide)
peptide: [dK][NMeL]TCLASYCQLF
modifications: not fully specified (C-terminus); printed as k-MeLeu-TCLASYCQLF; cysteine pairing not given here
B5: k-MeLeu-TCLASYCWLA (peptide)
peptide: [dK][NMeL]TCLASYCWLA
modifications: not fully specified (C-terminus); printed as k-MeLeu-TCLASYCWLA; cysteine pairing not given here
B6: (KLTCLASYCWLFG)2═N-O-(CH2)3-O-N═ (peptide)
peptide: KLTCLASYCWLFG
modifications: cysteine pairing not given here; also: dimer: two copies joined by ═N-O-(CH2)3-O-N═ (linker 1) at residue 13
B7: KLLKLLLKLLLKLLK-k-MeLeu-TCLASYCWLF (peptide)
peptide: KLLKLLLKLLLKLLK[dK][NMeL]TCLASYCWLF
modifications: not fully specified; printed as KLLKLLLKLLLKLLK-k-MeLeu-TCLASYCWLF; cysteine pairing not given here
B8: Palmitoyl-(PEG)27(PEG)27-KLTCLASYCWLF (peptide)
peptide: {Palmitoyl-(PEG)27-(PEG)27}-KLTCLASYCWLF
modifications: disulfide 4-9 (inferred); not fully specified (C-terminus); printed as Palmitoyl-(PEG)27(PEG)27-KLTCLASYCWLF
B9: H3N-KLTCLASYCWLFG═N-O-CH2-CO-PEG27-CNPRGD-(Y-OEt)-RC (peptide)
peptide: H-KLTCLASYCWLFG[:N‑O‑CH2‑CO‑PEG27]CNPRGDY(OEt)RC
modifications: numbers in words are those of the source; cysteine pairing not given here; also: oxime link =N-O-CH2-CO-PEG27 between G13 and C14, Y20 as Y-OEt
B10: rRAAGKLTCLASYCWLFATGIA (peptide)
peptide: [dR]RAAGKLTCLASYCWLFATGIA
modifications: not fully specified (C-terminus); printed as rRAAGKLTCLASYCWLFATGIA; cysteine pairing not given here

The binders below were run against human Factor IXa (human, UniProt P00740 47-191; P00740 227-461) (assay: cell-based or functional assay).
For RQLWNKLTCLASYCALIGLSGT, the “EC50 [µM], FXa generation assay” value was greater than 1 µM.
In the case of KGAYQKLTCLASYCLLFLLTAQ, the “EC50 [µM], FXa generation assay” value is reported as less than 0.5 µM.
QEQPAKLTCRGSYCWLFKRGDQ was tested, and the “EC50 [µM], FXa generation assay” value was greater than 50 µM.
In the case of HDSLDQLTCLASVCQLASMGAR, the “EC50 [µM], FXa generation assay” value is reported as greater than 1 µM.
With SRQSDKPTCLAISCSLLTSNVR the “EC50 [µM], FXa generation assay” value was greater than 50 µM.
HGLADRLTCLSSDCWLQPFGTS was tested, and the “EC50 [µM], FXa generation assay” value was greater than 50 µM.
VARASKVECLASYCQLFVGGEV was tested, and the “EC50 [µM], FXa generation assay” value was greater than 1 µM.
With GASGRRRTCVASYCLLFQSGLP the “EC50 [µM], FXa generation assay” value was greater than 25 µM.
For FPIQHKLTCLSSDCWLFPSHSY, the “EC50 [µM], FXa generation assay” value was greater than 50 µM.
For QAKMLKLTCLASYCWLFWVTRS, the “EC50 [µM], FXa generation assay” value was less than 0.5 µM.
RGRSAKLRCLASYCWLFFGVIL was tested, and the “EC50 [µM], FXa generation assay” value was less than 0.5 µM.
For RGRSAKLTCLASYCWLFFGVIL, the “EC50 [µM], FXa generation assay” value was less than 0.5 µM.
With RGRSAKLRCLASYCWLFFTVIL the “EC50 [µM], FXa generation assay” value was less than 0.5 µM.
In the case of VSGTGRLTCVASYCWMFQLGSF, the “EC50 [µM], FXa generation assay” value is reported as less than 0.5 µM.
RRAPGKLQCLASYCWLFATAIA was tested, and the “EC50 [µM], FXa generation assay” value was less than 0.5 µM.
For VSGTGRLTCVASYCWMFQLGIF, the “EC50 [µM], FXa generation assay” value was less than 0.5 µM.
For VSGTGKLTCLASYCWLFQLGSF, the “EC50 [µM], FXa generation assay” value was less than 0.5 µM.
With HQQRRKLTCLAGYCWLFVLGPS (not fully specified; cysteine pairing not given here) the “EC50 [µM], FXa generation assay” value was greater than 1 µM.
In the case of GDSGRKLSCLGSYCWLSVQFMA, the “EC50 [µM], FXa generation assay” value is reported as less than 0.5 µM.
RSTVSQMRCLASYCWLFPALVS was tested, and the “EC50 [µM], FXa generation assay” value was less than 0.5 µM.
In the case of NGGMQKPACLASQCWLFANPLP, the “EC50 [µM], FXa generation assay” value is reported as greater than 1 µM.
In the case of RHSNHNLTCQASYCWLLPAGLQ, the “EC50 [µM], FXa generation assay” value is reported as greater than 1 µM.
For HLGSPKLTCGASQCWLLNHEVS, the “EC50 [µM], FXa generation assay” value was greater than 50 µM.
With DAKVAKLRCLGSQCWLLQYAPG the “EC50 [µM], FXa generation assay” value was less than 0.5 µM.
For SKWEHQRGCLANNCWLFTLAPG, the “EC50 [µM], FXa generation assay” value was greater than 50 µM.
In the case of RRAPAKLQCLASYCWLFWTGIA, the “EC50 [µM], FXa generation assay” value is reported as less than 0.5 µM.
In the case of RGSVHQPTCLGGYCGRLHSSWV, the “EC50 [µM], FXa generation assay” value is reported as greater than 50 µM.
KRYVYRQMCLVSACWLLQLGYA was tested, and the “EC50 [µM], FXa generation assay” value was less than 0.5 µM.
B1 was tested, and the “EC50 [µM], FXa generation assay” value was greater than 1 µM.
In the case of Ac-K[dK][NMeL]TCLASYCWLF (cysteine pairing not given here) [Ac-K-k-MeLeu-TCLASYCWLF], the “EC50 [µM], FXa generation assay” value is reported as less than 0.5 µM.
B2 was tested, and the “EC50 [µM], FXa generation assay” value was greater than 10 µM.
For B3, the “EC50 [µM], FXa generation assay” value was greater than 20 µM.
KKLTCLASYCWLF (not fully specified; D-Lys 1, D-Lys 2, MeLeu 3) [k-k-MeLeu-TCLASYCWLF] was tested, and the “EC50 [µM], FXa generation assay” value was greater than 2.5 µM.
In the case of R[dK][NMeL]TCLASYCWLF (cysteine pairing not given here) [R-k-MeLeu-TCLASYCWLF], the “EC50 [µM], FXa generation assay” value is reported as greater than 1 µM.
[dK][NMeL]TCLASYCWLF (not fully specified (residue 8); cysteine pairing not given here) [k-MeLeu-TCLAS-(Y-OMe)-CWLF] was tested, and the “EC50 [µM], FXa generation assay” value was less than 0.5 µM.
With B4 the “EC50 [µM], FXa generation assay” value was greater than 1 µM.
For RRAAGKLQCLASYCWLFWTGIA, the “EC50 [µM], FXa generation assay” value was less than 0.5 µM.
In the case of B5, the “EC50 [µM], FXa generation assay” value is reported as greater than 1 µM.
For B6, the “EC50 [µM], FXa generation assay” value was less than 0.5 µM.
For B7, the “EC50 [µM], FXa generation assay” value was less than 0.5 µM.
For {Palmitoyl-(PEG)27}-KLTCLASYCWLF (cysteine pairing not given here) [Palmitoyl-(PEG)27-KLTCLASYCWLF], the “EC50 [µM], FXa generation assay” value was greater than 1 µM.
For B8, the “EC50 [µM], FXa generation assay” value was greater than 20 µM.
For B9, the “EC50 [µM], FXa generation assay” value was greater than 50 µM.
For [dR]RAPGKLTCLASYCWLFWTGIA[PEG16′]K([PEG2(3)-Biotin])[PEG16′]K(Palmitoyl) (cysteine pairing not given here) [rRAPGKLTCLASYCWLFWTGIA-PEG16-Lys(PEG2-Biotin)-PEG16-Lys(palmitoyl)], the “EC50 [µM], FXa generation assay” value was greater than 1 µM.
RAAPGKLQCLASYCWLFWTGIA was tested, and the “EC50 [µM], FXa generation assay” value was less than 0.5 µM.
For [dR]RAPGKLTCLASYCWLFWTGIA[PEG16″]K([PEG2″-Biotin])[PEG16″] (cysteine pairing not given here) [rRAPGKLTCLASYCWLFWTGIA-PEG16-Lys(PEG2-Biotin)-PEG16], the “EC50 [µM], FXa generation assay” value was less than 0.5 µM.
In the case of [PEG16″]K([PEG2″-Biotin])[PEG16″][dR]RAPGKLTCLASYCWLFWTGIA (cysteine pairing not given here) [PEG16-Lys(PEG2-Biotin)-PEG16-rRAPGKLTCLASYCWLFWTGIA], the “EC50 [µM], FXa generation assay” value is reported as greater than 1 µM.
ARAPGKLQCLASYCWLFWTGIA was tested, and the “EC50 [µM], FXa generation assay” value was less than 0.5 µM.
B10 was tested, and the “EC50 [µM], FXa generation assay” value was less than 0.5 µM.
